Several values for one entry are separate records, joined by “and”; a condition that tells them apart may be missing. Equal entries are not always repeated.
B1: Loqs-PD (Loquacious isoform D), full length (natural protein, Drosophila melanogaster, UniProt Q9VJY9-4 1-359, looked up)
chain: MDQENFHGSSLPQQLQNLHIQPQQASPNPVQTGFAPRRHYNNLVGLGNGNAVSGSPVKGAPLGQRHVKLKKEKISAQVAQLSQPGQLQLSDVGDPALAGGSGLQGGVGLMGVILPSDEALKFVSETDANGLAMKTPVSILQELLSRRGITPGYELVQIEGAIHEPTFRFRVSFKDKDTPFTAMGAGRSKKEAKHAAARALIDKLIGAQLPESPSSSAGPSVTGLTVAGSGGDGNANATGGGDASDKTVGNPIGWLQEMCMQRRWPPPSYETETEVGLPHERLFTIACSILNYREMGKGKSKKIAKRLAAHRMWMRLQETPIDSGKISDSICGELEGEVSIIQDIDRYEQVSKDFEFIKI
notes: Only a small segment of the C-terminus is seen in the maps; also called Loqs isoform D; source: Escherichia coli BL21 (DE3), purified (Ni-NTA, ULP1 cleavage, second Ni-NTA, SEC)
B2: 19-bp dsRNA (siRNA duplex) (dsRNA)
RNA 1: GAGACUUGGGCAAUGUGAAGU
RNA 2: GUCACAUUGCCCAAGUCUCUU
B3: 50-bp dsRNA (dsRNA)
RNA 1: GAGACUUGGGCAAUGUGACUGCUGAUCAGCAGUCACAUUGCCCAAGUCUCUU
RNA 2: B3 RNA 1
B4: DmDcr-2 mutant (D1217N/D1476N, DmDcr-2^DDNN) (enzyme, Drosophila melanogaster, UniProt A1ZAW0 1-1722, looked up)
chain: MEDVEIKPRGYQLRLVDHLTKSNGIVYLPTGSGKTFVAILVLKRFSQDFDKPIESGGKRALFMCNTVELARQQAMAVRRCTNFKVGFYVGEQGVDDWTRGMWSDEIKKNQVLVGTAQVFLDMVTQTYVALSSLSVVIIDECHHGTGHHPFREFMRLFTIANQTKLPRVVGLTGVLIKGNEITNVATKLKELEITYRGNIITVSDTKEMENVMLYATKPTEVMVSFPHQEQVLTVTRLISAEIEKFYVSLDLMNIGVQPIRRSKSLQCLRDPSKKSFVKQLFNDFLYQMKEYGIYAASIAIISLIVEFDIKRRQAETLSVKLMHRTALTLCEKIRHLLVQKLQDMTYDDDDDNVNTEEVIMNFSTPKVQRFLMSLKVSFADKDPKDICCLVFVERRYTCKCIYGLLLNYIQSTPELRNVLTPQFMVGRNNISPDFESVLERKWQKSAIQQFRDGNANLMICSSVLEEGIDVQACNHVFILDPVKTFNMYVQSKGRARTTEAKFVLFTADKEREKTIQQIYQYRKAHNDIAEYLKDRVLEKTEPELYEIKGHFQDDIDPFTNENGAVLLPNNALAILHRYCQTIPTDAFGFVIPWFHVLQEDERDRIFGVSAKGKHVISINMPVNCMLRDTIYSDPMDNVKTAKISAAFKACKVLYSLGELNERFVPKTLKERVASIADVHFEHWNKYGDSVTATVNKADKSKDRTYKTECPLEFYDALPRVGEICYAYEIFLEPQFESCEYTEHMYLNLQTPRNYAILLRNKLPRLAEMPLFSNQGKLHVRVANAPLEVIIQNSEQLELLHQFHGMVFRDILKIWHPFFVLDRRSKENSYLVVPLILGAGEQKCFDWELMTNFRRLPQSHGSNVQQREQQPAPRPEDFEGKIVTQWYANYDKPMLVTKVHRELTPLSYMEKNQQDKTYYEFTMSKYGNRIGDVVHKDKFMIEVRDLTEQLTFYVHNRGKFNAKSKAKMKVILIPELCFNFNFPGDLWLKLIFLPSILNRMYFLLHAEALRKRFNTYLNLHLLPFNGTDYMPRPLEIDYSLKRNVDPLGNVIPTEDIEEPKSLLEPMPTKSIEASVANLEITEFENPWQKYMEPVDLSRNLLSTYPVELDYYYHFSVGNVCEMNEMDFEDKEYWAKNQFHMPTGNIYGNRTPAKTNANVPALMPSKPTVRGKVKPLLILQKTVSKEHITPAEQGEFLAAITASSAADVFDMERLEILGNSFLKLSATLYLASKYSDWNEGTLTEVKSKLVSNRNLLFCLIDADIPKTLNTIQFTPRYTWLPPGISLPHNVLALWRENPEFAKIIGPHNLRDLALGDEESLVKGNCSDINYNRFVEGCRANGQSFYAGADFSSEVNFCVGLVTIPNKVIADTLEALLGVIVKNYGLQHAFKMLEYFKICRADIDKPLTQLLNLELGGKKMRANVNTTEIDGFLINHYYLEKNLGYTFKDRRYLLQALTHPSYPTNRITGSYQELEFIGNAILDFLISAYIFENNTKMNPGALTDLRSALVNNTTLACICVRHRLHFFILAENAKLSEIISKFVNFQESQGHRVTNYVRILLEEADVQPTPLDLDDELDMTELPHANKCISQEAEKGVPPKGEFNMSTNVDVPKALGDVLEALIAAVYLDCRDLQRTWEVIFNLFEPELQEFTRKVPINHIRQLVEHKHAKPVFSSPIVEGETVMVSCQFTCMEKTIKVYGFGSNKDQAKLSAAKHALQQLSKCDA
notes: Dicer-2 (DmDcr-2) of Drosophila melanogaster, full length, with D1217N/D1476N (no dicing activity, helicase activity kept); also called Dicer-2; source: sf9 cells (Bac-to-Bac baculovirus), co-expressed with R2D2, purified (Ni-NTA, Hitrap Q, 2nd Ni-NTA, SEC)

Legend:
[1] = biological target: B4; experiment: cryo-EM structure; DmDcr-2^DDNN/R2D2/Loqs-PD complex with 50-bp dsRNA 1:1, 25 °C for 2 h, diluted to 1 uM in SEC buffer with 5 mM ATP and 5 mM MgCl2; details: both partners purified
[2] = biological target: T1, DmDcr-2^DDNN/R2D2 complex (Drosophila melanogaster, UniProt A1ZAW0 1-1722; Q9VLW8 1-311, D1217N | D1476N); experiment: SEC; purified DmDcr-2^DDNN/R2D2 and Loqs-PD mixed at a molar ratio of 1:1.5, on ice for 1 h; Superose 6 10/300 Increase in SEC buffer (100 mM NaCl, 20 mM Tris-HCl pH 8.0, 1 mM DTT); details: both partners purified
T1 construct: Dicer-2 (DmDcr-2) of Drosophila melanogaster, full length, with D1217N/D1476N; as m1; R2D2 of Drosophila, full length; as m2; Complex formed beforehand, to which Loqs-PD was added; also called DmDcr-2/R2D2; source: sf9 cells (Bac-to-Bac baculovirus), co-expressed, purified (Ni-NTA, Hitrap Q, 2nd Ni-NTA, SEC)

[3] = biological target: T2, DmDcr-2 DDNN;R2D2;Loqs-PD (Drosophila melanogaster;Drosophila …, UniProt A1ZAW0;Q9VLW8;Q9VJY9-4 1-1722;1-311;1-359, D1217N;D1476N||); experiment: cryo-EM; ATP, Mg2+; Trimer state (EMD-34708); Cryo-EM sample buffer not in material; protein SEC buffer 100 mM NaCl, 20 mM Tris-HCl pH 8.0, 1 mM DTT; oligomers formed with ATP and Mg2+; details: protein: recombinant;recombinant;recombinant; tags: purified by Ni-NTA
[4] = biological target: T2, DmDcr-2 DDNN;R2D2;Loqs-PD; experiment: cryo-EM; ATP, Mg2+; Dimer state; Cryo-EM sample buffer not in material; protein SEC buffer 100 mM NaCl, 20 mM Tris-HCl pH 8.0, 1 mM DTT; oligomers formed with ATP and Mg2+; details: protein: recombinant;recombinant;recombinant; tags: purified by Ni-NTA
[5] = biological target: the molecule itself; experiment: cryo-EM structure; DmDcr-2^DDNN/R2D2/Loqs-PD complex with 50-bp dsRNA 1:1, 25 °C for 2 h, diluted to 1 uM in SEC buffer with 5 mM ATP and 5 mM MgCl2

B1
binding result [1]: binds
binding result [2]: binds

B2
binding result [3]: binds

B3
binding result [4]: binds

B4
stoichiometry N [5]: 2 and 3
